Experimental data from patent US20180057604A1 (Genentech, published 2018).
Changes are numbered by the printed parent chain. In names and notes the source's numbering stands. Several values for one entry are separate records, joined by “and”; a condition that tells them apart may be missing. Equal entries are not always repeated. Where two headings read alike, the source gives them in different places. One block for each binder: values may come before it.

Key:
[1] = target: T1, cyno TfR extracellular domain (analogous construct to human TfR ecd) (cynomolgus monkey, UniProt Q5RDH6 87-760 (Pongo abelii entry)); experiment: SPR, TfR captured by anti-His, Fab injected;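 for KD: single cycle kinetics with a Fab dilution series, fitted by a one-to-one Langmuir model or a steady state model, KD taken as koff over kon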
T1 construct: also called cynoTfR ecd
T1 chain: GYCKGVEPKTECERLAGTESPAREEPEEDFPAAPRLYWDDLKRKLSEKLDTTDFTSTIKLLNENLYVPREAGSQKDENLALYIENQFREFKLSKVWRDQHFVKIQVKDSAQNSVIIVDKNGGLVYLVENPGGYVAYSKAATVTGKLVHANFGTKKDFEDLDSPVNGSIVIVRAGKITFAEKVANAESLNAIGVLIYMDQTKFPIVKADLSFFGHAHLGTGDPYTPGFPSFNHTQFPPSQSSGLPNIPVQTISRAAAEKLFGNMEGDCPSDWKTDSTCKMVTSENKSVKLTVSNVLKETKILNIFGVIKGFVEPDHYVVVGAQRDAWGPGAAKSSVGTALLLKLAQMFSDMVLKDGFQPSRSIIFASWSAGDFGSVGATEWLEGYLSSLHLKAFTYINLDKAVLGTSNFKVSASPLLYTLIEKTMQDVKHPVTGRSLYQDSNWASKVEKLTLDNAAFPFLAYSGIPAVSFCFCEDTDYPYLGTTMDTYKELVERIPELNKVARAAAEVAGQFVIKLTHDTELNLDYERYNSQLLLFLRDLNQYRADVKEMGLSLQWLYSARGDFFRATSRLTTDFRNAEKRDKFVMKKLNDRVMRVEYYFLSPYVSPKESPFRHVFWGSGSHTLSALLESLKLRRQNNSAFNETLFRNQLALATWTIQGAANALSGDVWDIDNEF

[2] = target: T2, human TfR extracellular domain with N-terminal His tag (human, UniProt P02786 89-760); experiment: SPR, TfR captured by anti-His, Fab injected;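 for KD: single cycle kinetics with a Fab dilution series, fitted by a one-to-one Langmuir model or a steady state model, KD taken as koff over kon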
T2 construct: Biotinylated in some assays; also called huTfR; HuTfR

[3] = target: T1, cyno TfR extracellular domain …; experiment: SPR, KD on cyno TfR over KD on human TfR
[4] = target: T1, cyno TfR extracellular domain …; experiment: SPR, TfR captured by anti-His, Fab injected;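 for KD: single cycle kinetics with a Fab dilution series, fitted by a one-to-one Langmuir model or a steady state model, KD taken as koff over kon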
[5] = target: T2, human TfR extracellular domain with …; experiment: SPR, TfR captured by anti-His, Fab injected; remark: listed apart in the source;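 for KD: single cycle kinetics with a Fab dilution series, fitted by a one-to-one Langmuir model or a steady state model, KD taken as koff over kon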
[6] = target: T1, cyno TfR extracellular domain …; experiment: SPR, KD on cyno TfR over KD on human TfR
[7] = target: T1, cyno TfR extracellular domain …; experiment: SPR, Fab
[8] = target: T2, human TfR extracellular domain with …; experiment: SPR, Fab
[9] = target: T1, cyno TfR extracellular domain …; experiment: SPR, TfR captured by anti-His, Fab injected
[10] = target: T2, human TfR extracellular domain with …; experiment: SPR, TfR captured by anti-His, Fab injected; remark: listed apart in the source
[11] = target: T1, cyno TfR extracellular domain …; experiment: SPR, KD on cyno TfR over KD on human TfR
[12] = target: T1, cyno TfR extracellular domain …; experiment: ELISA, IgG
[13] = target: T2, human TfR extracellular domain with …; experiment: ELISA, IgG
[14] = target: T1, cyno TfR extracellular domain …; experiment: SPR, IgG;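 note: His-tagged TfR captured via immobilized anti-His antibody on a CM5 chip, antibody injected in 3-fold dilution series by single cycle kinetics, 1:1 Langmuir or steady-state fit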
[15] = target: T2, human TfR extracellular domain with …; experiment: SPR, IgG;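 note: His-tagged TfR captured via immobilized anti-His antibody on a CM5 chip, antibody injected in 3-fold dilution series by single cycle kinetics, 1:1 Langmuir or steady-state fit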
[16] = target: T1, cyno TfR extracellular domain …; experiment: ELISA, TfR-coated plate, IgG
[17] = target: T2, human TfR extracellular domain with …; experiment: ELISA, TfR-coated plate, IgG
[18] = target: T1, cyno TfR extracellular domain …; experiment: SPR SCK 1:1 fit, IgG
[19] = target: T2, human TfR extracellular domain with …; experiment: SPR SCK 1:1 fit, IgG
[20] = target: T2, human TfR extracellular domain with …; experiment: ELISA, immobilized huTfR, with and without 6.3 uM holo-Tf
[21] = target: TfR (species not stated, Table 15); experiment: SPR, Fab
[22] = target: BACE1 in primary mouse cortical neurons (mouse, UniProt P56818 46-501); experiment: cell-based or functional assay
BACE1 in primary mouse cortical neurons, sequence (P56818 46-501): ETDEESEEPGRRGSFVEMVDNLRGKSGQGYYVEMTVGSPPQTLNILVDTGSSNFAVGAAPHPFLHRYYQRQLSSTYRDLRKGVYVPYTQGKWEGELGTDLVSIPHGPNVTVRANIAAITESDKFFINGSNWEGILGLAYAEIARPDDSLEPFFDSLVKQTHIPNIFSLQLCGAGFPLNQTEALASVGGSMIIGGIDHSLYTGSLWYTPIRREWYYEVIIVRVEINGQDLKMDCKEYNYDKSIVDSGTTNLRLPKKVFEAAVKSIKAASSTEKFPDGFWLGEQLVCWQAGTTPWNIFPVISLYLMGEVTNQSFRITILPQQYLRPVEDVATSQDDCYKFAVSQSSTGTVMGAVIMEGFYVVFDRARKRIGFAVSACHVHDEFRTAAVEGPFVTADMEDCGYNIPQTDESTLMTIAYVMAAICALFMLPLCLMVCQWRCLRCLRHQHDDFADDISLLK

murine BACE1 ECD [23] = target: T3, murine BACE1 ECD; experiment: Octet, pH 7.5;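 note: antibodies captured on anti-human capture biosensor tips, dissociation followed in PBS with BSA buffer, kinetics fitted with a one-to-one binding model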
T3 construct: analyte of the Octet assay (200 nM) and enzyme of the first short substrate assay
T3 sequence (single chain, as listed by the source limits assumed): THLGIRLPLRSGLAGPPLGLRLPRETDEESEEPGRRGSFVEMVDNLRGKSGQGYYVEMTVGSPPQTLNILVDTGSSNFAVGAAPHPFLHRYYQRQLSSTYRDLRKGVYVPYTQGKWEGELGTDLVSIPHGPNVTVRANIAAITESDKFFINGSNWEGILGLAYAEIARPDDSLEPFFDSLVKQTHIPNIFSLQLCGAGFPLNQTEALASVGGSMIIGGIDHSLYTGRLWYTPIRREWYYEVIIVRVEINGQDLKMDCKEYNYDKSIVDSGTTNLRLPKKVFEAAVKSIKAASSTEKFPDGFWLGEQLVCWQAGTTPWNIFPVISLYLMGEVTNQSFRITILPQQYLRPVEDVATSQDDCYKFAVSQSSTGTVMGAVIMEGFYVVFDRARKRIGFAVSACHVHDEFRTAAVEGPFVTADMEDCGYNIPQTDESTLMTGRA

human BACE1 ECD [24] = target: T4, human BACE1 ECD; experiment: Octet, pH 7.5;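 note: antibodies captured on anti-human capture biosensor tips, dissociation followed in PBS with BSA buffer, kinetics fitted with a one-to-one binding model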
T4 construct: analyte of the Octet assay (200 nM) and enzyme of the first short substrate assay; also called human BACE1 extracellular domain
T4 sequence (single chain, as listed by the source limits assumed): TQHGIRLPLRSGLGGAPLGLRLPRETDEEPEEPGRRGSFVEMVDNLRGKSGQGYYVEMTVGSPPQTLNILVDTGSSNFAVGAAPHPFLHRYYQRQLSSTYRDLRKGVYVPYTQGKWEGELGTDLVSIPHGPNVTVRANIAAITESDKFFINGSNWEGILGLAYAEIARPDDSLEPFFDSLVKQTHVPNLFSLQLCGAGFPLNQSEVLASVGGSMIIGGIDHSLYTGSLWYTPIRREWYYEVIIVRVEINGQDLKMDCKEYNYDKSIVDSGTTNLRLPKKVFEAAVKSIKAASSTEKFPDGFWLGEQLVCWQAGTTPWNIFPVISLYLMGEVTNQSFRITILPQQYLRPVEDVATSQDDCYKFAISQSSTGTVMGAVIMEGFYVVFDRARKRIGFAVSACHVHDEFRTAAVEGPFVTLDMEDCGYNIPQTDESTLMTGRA

[25] = target: BACE1 (HTRF long substrate and FRET short substrate assays of Example 9D); experiment: cell-based or functional assay
murine BACE1 ECD [26] = target: T3, murine BACE1 ECD; experiment: Octet, pH 7.5, second run
human BACE1 ECD [27] = target: T4, human BACE1 ECD; experiment: Octet, pH 7.5, second run
murine BACE1 ECD [28] = target: T3, murine BACE1 ECD; experiment: Octet, pH 5.0, second run
human BACE1 ECD [29] = target: T4, human BACE1 ECD; experiment: Octet, pH 5.0, second run
murine BACE1 ECD [30] = target: T3, murine BACE1 ECD; experiment: Octet, pH 5.0
human BACE1 ECD [31] = target: T4, human BACE1 ECD; experiment: Octet, pH 5.0
murine BACE1 ECD [32] = target: T3, murine BACE1 ECD; experiment: cell-based or functional assay
human BACE1 ECD [33] = target: T4, human BACE1 ECD; experiment: cell-based or functional assay
[34] = target: T5, human BACE1 (R&D Systems) (human, UniProt P56817); experiment: SPR (Biacore), second run
T5 construct: recombinant, commercial (R&D Systems)
T5 sequence (P56817 22-457 limits assumed): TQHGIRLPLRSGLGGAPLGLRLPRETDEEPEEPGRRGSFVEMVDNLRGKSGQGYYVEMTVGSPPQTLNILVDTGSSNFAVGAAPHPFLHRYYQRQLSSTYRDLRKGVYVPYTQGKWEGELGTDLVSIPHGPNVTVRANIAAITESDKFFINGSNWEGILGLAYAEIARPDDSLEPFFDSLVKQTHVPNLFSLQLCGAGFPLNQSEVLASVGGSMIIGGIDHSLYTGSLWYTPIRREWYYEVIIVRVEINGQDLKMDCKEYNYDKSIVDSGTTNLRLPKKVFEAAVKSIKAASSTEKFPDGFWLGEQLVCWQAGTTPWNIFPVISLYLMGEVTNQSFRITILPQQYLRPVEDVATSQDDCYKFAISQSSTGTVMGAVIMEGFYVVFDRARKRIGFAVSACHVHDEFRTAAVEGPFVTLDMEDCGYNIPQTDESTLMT

[35] = target: T5, human BACE1 (R&D Systems); experiment: SPR (Biacore)
[36] = target: T1, cyno TfR extracellular domain …; experiment: SPR, biotinylated TfR on streptavidin, bispecific injected
[37] = target: T2, human TfR extracellular domain with …; experiment: as above

koff [1]: 0.0127 s⁻¹ | kon [1]: 451000 M⁻¹ s⁻¹ | koff [2]: 0.00474 s⁻¹ | kon [2]: 674000 M⁻¹ s⁻¹ | Cy/hu ratio [3]: 4 | koff [4]: 0.0218 s⁻¹ | kon [4]: 1.41e+06 M⁻¹ s⁻¹ | Kd [5]: 4.7 nM | koff [5]: 0.00406 s⁻¹ and 0.00364 s⁻¹ | kon [5]: 456000 M⁻¹ s⁻¹ and 776000 M⁻¹ s⁻¹ | Cy/hu ratio [6]: 3.4 | Kd [7]: 16 nM | Kd [8]: 4.7 nM | koff [9]: 0.0127 s⁻¹ | kon [9]: 451000 M⁻¹ s⁻¹ | koff [10]: 0.00474 s⁻¹ | kon [10]: 674000 M⁻¹ s⁻¹ | Cyno/human ratio [11]: 4
B1: Hu15G11.v5.Fab (Fab, V domains shown)
VH: EVQLVQSGAEVKKPGASVKVSCKASGYTFTSYWMHWVRQAPGQRLEWIGEINPTNGRTNYIEKFKSRATLTVDKSASTAYMELSSLRSEDTAVYYCARGTRAYHYWGQGTMVTVSS
VL: DIQMTQSPSSLSASVGDRVTITCRASDNLYSNLAWYQQKPGKSPKLLVYDATNLADGVPSRFSGSGSGTDYTLTISSLQPEDFATYYCQHFWGTPLTFGQGTKVEIK
notes: Fab

EC50 [12]: 0.02 µg/mL | EC50 [13]: 0.016 µg/mL | Kd [14]: 11.8 nM | Kd [15]: 3.33 nM | EC50 [16]: 1.8 ng/mL | EC50 [17]: 0.8 ng/mL | Kd [18]: 12 nM | Kd [19]: 3.3 nM | EC50 (read off the curve) [20]: ~5 ng/mL
B2: hu15G11.v5 IgG (antibody, V domains shown)
VH: B1 VH
VL: B1 VL
notes: Human IgG (detected with anti-human Fc gamma); also called humanized 15G11.v5

Kd [21]: 55 nM
B3: Hu15G11.HC52A Fab (Fab, V domains shown)
VH: B1 VH with N52A
VL: B1 VL
notes: Fab; also called antiTfR.52A.Fab; 15G11.52A Fab

IC50, Abeta x-40 in mouse cortical neurons [22]: 4.56 nM | IC50, Abeta x-40 in mouse cortical neurons (5884*, second run) [22]: 3.51 nM | maximal % inhibition of Abeta x-40 [22]: 83% | Kd (murine BACE1 ECD [23]): 1.3 nM | Kd (human BACE1 ECD [24]): 0.92 nM | EC50, FRET short substrate [25]: 478 pM | EC50, HTRF long substrate [25]: 7.76 nM | Kd (murine BACE1 ECD [26]): 0.49 nM | Kd (human BACE1 ECD [27]): 0.46 nM | Kd (murine BACE1 ECD [28]): 1.3 nM | Kd (human BACE1 ECD [29]): 0.86 nM | Kd (murine BACE1 ECD [30]): 2 nM | Kd (human BACE1 ECD [31]): 1.4 nM | % inhibition of BACE1 activity, short FRET substrate (murine BACE1 ECD [32]): -243% | % inhibition of BACE1 activity, short FRET substrate (human BACE1 ECD [33]): -102% | Kd [34]: 5.23 nM | Kd [35]: 2.62 nM
B4: 5884 (antibody, V domains shown)
VH: QVQLVQSGAEVKKPGSSVKVSCKASGGTFSGYGISWVRQAPGQGLEWMGNIIPGFGTANYAQKFQGRVTITADESTSTAYMELSSLRSEDTAVYYCARSGGTKYGMLDVWGQGTMVTVSS
VL: EIVMTQSPATLSVSPGERATLSCRASQSVSSNLAWYQQKPGQAPRLLIYGASTRATGIPARFSGSGSGTEFTLTISSLQSEDFAVYYCQQLILWPPRTFGGGTKVEIK
notes: anti-BACE1 IgG

Kd [36]: 23.7 nM | Kd [37]: 9 nM
B5: Anti-TfR1/6266.hIgG1.N297G (bispecific antibody, V domains shown)
VH 1: B1 VH
VL 1: B1 VL
VH 2: B4 VH with Q1E, F29L, I34V
VL 2: B4 VL
notes: Knob-in-hole human IgG1 with N297G
